Assay [1] deals with T1, human CD22-beta-ECD-His tagged soluble antigen (Homo sapiens, UniProt P20273, A486R/Y639H).
T1 sequence (P20273 22-681 A486R/Y639H): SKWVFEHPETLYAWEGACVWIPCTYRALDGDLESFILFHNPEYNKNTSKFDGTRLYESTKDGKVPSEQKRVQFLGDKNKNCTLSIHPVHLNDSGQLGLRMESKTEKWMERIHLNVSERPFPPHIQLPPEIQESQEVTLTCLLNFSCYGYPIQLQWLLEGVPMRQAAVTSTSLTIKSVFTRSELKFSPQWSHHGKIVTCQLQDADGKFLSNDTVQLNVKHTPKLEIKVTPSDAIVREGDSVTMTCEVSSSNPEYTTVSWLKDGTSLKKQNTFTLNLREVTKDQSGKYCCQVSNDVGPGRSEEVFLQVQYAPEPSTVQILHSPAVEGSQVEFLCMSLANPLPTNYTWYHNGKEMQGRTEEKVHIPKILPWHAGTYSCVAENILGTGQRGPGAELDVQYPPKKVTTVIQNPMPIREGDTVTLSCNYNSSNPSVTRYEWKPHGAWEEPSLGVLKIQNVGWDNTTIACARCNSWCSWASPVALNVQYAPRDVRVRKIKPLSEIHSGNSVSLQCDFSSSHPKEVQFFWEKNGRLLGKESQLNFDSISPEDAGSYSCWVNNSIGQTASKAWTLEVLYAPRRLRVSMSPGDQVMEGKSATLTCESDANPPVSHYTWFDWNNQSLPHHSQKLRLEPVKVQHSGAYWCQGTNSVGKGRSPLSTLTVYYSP
In words: BIACORE surface plasmon resonance binding to soluble CD22 ECD. As to conditions: BIACORE 3000, 25° C., antibody coupled to chip, soluble CD22 ECD injected; one-to-one Langmuir model. How it is done: The binding affinity of murine and humanized 10F4 antibody for soluble CD22 extracellular domain (ECD) was determined by surface plasmon resonance measurement using a BIACORE® 3000 system (Biacore, Inc., Piscataway, N.J.). Briefly, carboxymethylated dextran biosensor chips (CMS, Biacore Inc.) were activated with N-ethyl-N′-(3-dimethylaminopropyl)-carbodiimide hydrochloride (EDC) and N-hydroxysuccinimide (NHS) according to the supplier's instructions. These activated chips were coated with anti-CD22 IgG1 antibody 10F4 (murine or humanized) by dilution to 5 μg/ml with 10 mM sodium acetate, pH 4.8, before injection at a flow rate of 5 μl/minute to achieve approximately 500 response units (RU) of coupled antibody. Next, 1M ethanolamine was injected to block unreacted groups. […] Association rates (kon) and dissociation rates (koff) were calculated using a simple one-to-one Langmuir binding model (BIAevaluation Software version 3.2). The equilibrium dissociation constant (Kd) was calculated as the ratio koff/kon. Anti-CD22 antibody, RFB4, was used as a control (Chemicon International, Inc., Temecula, Calif., catalog no. CBL147).

The test system of assay [2] is human CD22 (CD22beta) lacking domain 1, domain 2, or domains 3 and 4. Put plainly: Epitope mapping by flow cytometry on CHO cells expressing CD22 domain deletion variants. It counts as binding. How it is done: (§1) The epitopes of CD22 to which 10F4.4.1 and 5E8.1.8 antibodies bound were determined according to the following procedures. CD22 sequences lacking various of the seven immunoglobulin-like domains of the major CD22 isoform (CD22beta) were cloned and transformed into cells for stable expression. For example, CD22 variants lacking domain 1 (Δ1), domain 2 (Δ2), or domains 3 and 4 (Δ3,4) were cloned, transformed into CHO cells, and expressed on the cells. Control cells expressed CD22beta. Deletions were performed using Stratagene QuikChange XL™ reagent kit. Deletion of domain 1 was performed by deletion of amino acids 22-138; deletion of domain 2 was performed by deletion of amino acids 139-242; and deleted domains 3 and 4 were available as the minor isoform CD22alpha (deletion of amino acids 241-417). All amino acid numbers refer to the numbering of full length precursor CD22beta by Wilson, G. L. et al. (see FIG. 1 in Wilson, G. L. et al., J. Exp. Med. 173:137-146 (1991)). FIG. 14 is a diagram of the deleted domains. Binding was determined by flow cytometry using an isotype control. Binding of 10F4.4.1 was detected using goat anti-mouse IgG Alexa 488. Binding of 5E8.1.8 was detected using biotinylated goat anti-mouse IgG plus streptavidin PE. […] Neither bound CD22 lacking domain 1 or domain 2, and both bound CD22 comprising domains 1 and 2, but lacking domains 3 and 4.
(A flow cytometer gives signals particle by particle.)

The target of assay [3] is T2, human CD22 (CD22beta) lacking domain 1, domain 2, or domains 3 and 4 (Homo sapiens, UniProt P20273).
T2 construct: expressed in transfected cells
T2 sequence (P20273 22-670 isoform P20273-2): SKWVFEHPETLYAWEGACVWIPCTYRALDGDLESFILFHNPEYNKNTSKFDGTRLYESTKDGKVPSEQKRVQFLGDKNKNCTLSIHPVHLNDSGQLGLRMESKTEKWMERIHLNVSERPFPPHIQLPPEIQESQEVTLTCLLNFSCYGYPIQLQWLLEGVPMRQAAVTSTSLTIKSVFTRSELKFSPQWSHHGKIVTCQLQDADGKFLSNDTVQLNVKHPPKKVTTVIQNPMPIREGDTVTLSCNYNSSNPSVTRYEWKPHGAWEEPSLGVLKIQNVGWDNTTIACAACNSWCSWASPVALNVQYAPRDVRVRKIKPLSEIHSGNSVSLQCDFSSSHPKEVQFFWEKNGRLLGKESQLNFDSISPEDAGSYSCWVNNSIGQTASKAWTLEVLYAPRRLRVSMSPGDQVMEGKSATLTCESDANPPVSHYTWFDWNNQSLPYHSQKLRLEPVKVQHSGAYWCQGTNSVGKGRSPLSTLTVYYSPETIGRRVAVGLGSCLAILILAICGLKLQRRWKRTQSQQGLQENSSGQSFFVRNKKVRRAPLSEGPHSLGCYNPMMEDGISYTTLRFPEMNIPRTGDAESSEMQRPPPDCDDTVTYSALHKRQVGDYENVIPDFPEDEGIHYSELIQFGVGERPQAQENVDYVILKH
The assay is described as above. It counts as binding. As to conditions: flow cytometry, CHO cells. How it is done: as §1

Another assay deals with human CD22. Put plainly: ELISA plate assays and FACS cell-based assays for selection of hybridoma antibodies. It counts as binding. How it is done: Murine monoclonal antibodies capable of specifically binding human CD22 was prepared. BALB/c female mice, age six weeks, were immunized in their foot pads with purified human CD22 his-8 tagged extracellular domain lacking domains 3 and 4 (SEQ ID NO:30 (ECD) plus the sequence […] at the C-terminus) or CD22 his-8 tagged extracellular domain comprising domains 1-7 (SEQ ID NO:28 (ECD) plus the above His sequence tag) in Ribi's adjuvant. Subsequent injections were performed in the same manner at one and three weeks after the initial immunizations. […]
human CD22, sequence (P20273 20-240 limits assumed): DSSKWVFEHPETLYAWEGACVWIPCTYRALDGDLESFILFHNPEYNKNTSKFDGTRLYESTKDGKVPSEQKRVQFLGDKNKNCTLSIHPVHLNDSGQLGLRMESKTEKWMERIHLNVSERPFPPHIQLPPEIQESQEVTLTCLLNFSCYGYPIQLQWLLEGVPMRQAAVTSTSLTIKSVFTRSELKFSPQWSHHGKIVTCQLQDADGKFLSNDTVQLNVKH
ELISA-based assays: Anti-CD22 antibody screening by ELISA is performed as follows, with all incubations done at room temperature. […] Data is obtained by reading the plates in an automated ELISA plate reader at an absorbance of 490 nm.
CHO cells expressing human CD22 on their surface were incubated with anti-CD22 hybridoma supernatant in 100 μl FACS buffer (0.1% BSA, 10 mM sodium azide in PBS, pH 7.4) for 30 minutes at 4° C. followed by one wash with FACS buffer. The amount of anti-CD22 binding was determined by incubating an aliquot of the antibody/cell mixture with a polyclonal FITC conjugated goat or rabbit anti-mouse IgG (Accurate Chem. Co., Westbury, N.Y.) (for murine test antibodies) or goat or rabbit anti-human IgG (for humanized antibodies) for 30 minutes at 4° C. followed by three washes with FACS buffer.

B1: Mu 10F4.4.1: murine anti-human CD22 monoclonal antibody, hybridoma ATCC PTA-7621 (antibody, V domains shown)
VH: QVQLQQSGPELVKPGASVKISCKASGYEFSRSWMNWVKQRPGQGREWIGRIYPGDGDTNYSGKFKGKATLTADKSSSTAYMQLSSLTSVDSAVYFCARDGSSWDWYFDVWGAGTTVTVSS
VL: DILMTQTPLSLPVSLGDQASISCRSSQSIVHSNGNTFLEWYLQKPGQSPKLLIYKVSNRFSGVPDRFSGSGSGTDFTLKISRVEAEDLGVYYCFQGSQFPYTFGGGTKVEIK
In the case of B1, in assay [1], the “koff/10^−4” value is reported as 2.8 and the “kon/10^5” value was found to be 0.19. The “binding to CD22 lacking domain 1 or domain 2” value in assay [2] (flow cytometry, CHO cells) is “Neither bound”. Also, the “epitope (CD22 domains bound)” value in assay [2] (within amino acid 22 to amino acid 240 of SEQ ID NO:27) is “domains 1 and 2 of human CD22”. The “binding to CD22 comprising domains 1 and 2 but lacking domains 3 and 4” value in assay [3] was “both bound”. The “specific binding to human CD22” value with human CD22 was “bind specifically to human CD22”.

These data come from patent US8394607B2, “Anti-CD22 antibodies and immunoconjugates and methods of use” (Genentech, Inc., priority 2006, dated 2013).
